{
  "source": "paper PMC9675976",
  "about": "“Selfish uptake versus extracellular arabinoxylan degradation in the primary degrader Ruminiclostridium cellulolyticum, a new string to its bow” (Biotechnology for Biofuels and Bioproducts, 2022)",
  "molecules": {"B1": {"name": "XuaD (Ruminiclostridium cellulolyticum H10) (protein)", "chain": "MVKMILNADIKKGKINKNIYGHFSEHLGRCIYEGLWVGEDSEIPNINGFRTDVVEALKKMKIPVLRWPGGCFADEYHWVDGIGPKENRPCMVNTHWGGVVENNHFGTHEFLELCEMLGAEPYICGNVGSGTVHEMQQWVEYMTFDGKSPMADLRRANGKEEPWRVKYFGVGNENWGCGGNMTAEFYADQYKRYATYVRNFGDNKIYKIAGGASVDDYHWTEVLMREAGKQMDGLSVHYYTRISKDWSEQGSATEFDENHWFSVMQNALFTEELVVRHSNIMDKYDPEKKVGMIVDEWGTWFAVEPGTNPGFLYQQNTMRDALVAGIHLNIFNNHCDRVQMANIAQMVNVLQAVILTEGKKMLLTPTYHVFDMYKVHQGAELLSLDFESPEYAYNGEKVPQLSASSSVDSEGKIHVTICNLNPSADVNIDIDLRGVKSKSSTGKIITSNAMNAKNTFEETTNVTIKNFEDINLENNHISGKIPSKSVVLLEIV"}, "B2": {"name": "XuaJ (Ruminiclostridium cellulolyticum H10) (protein)", "chain": "MGIILNSNRPKIRLPRIISDGMVLQRNTDVKIWGWASPGEAVTVRFIGKAYHAFADDSGEWFVRLEQAKAGGPYDMYIETEESLEKITIKNILMGDVWLCSGQSNMEMKMDSVKDTYPDEIVHSCNDYIRHFLVPVKYDFEKPQTDLEAGIWEAANPESILDFTATGYFFALKLFEKYNIPIGLINASLGGSPAEAWLSENALREFPEHYESAKQLSNRDYLDKVLREDQESAEAWYTALNQNDEGLKSNDIPFHDTEYDAPFWQNIKVPSYWEDEGVGNFNGVVWFRKEIDIPSTLADKPARLVLGNIVDEDTAYINGIEVGTTPNQYITRKYSIQEGLLKEGKNTIVLRVVNTAGKGGFYKDKPYQLEIGDNIIELSGEWQYMIGAKSSPMPAPAFVQWRPLGLYNGMIAPVTSYSIKGFIWYQGESNTKNPGEYENLLKALIADWRQKWNMGNLPFLYVQLPNFMEASEIPMESSWAELREAQRRTLSVPCTGMAVAIDLGEWNDIHPVNKKDVGFRLALAAMKTAYRDKTIVAYGPMYQSGKIDGNRIILSFTDTGSGLTVKNGDRPEAFAIAGADRTFVRADAEIIGDSVAVWSEKVSHPVYVKYAWADNPADANLYNLEGLPASPFTTE"}},
  "key": {"XuaH": {"molecular_target": "XuaH (Ruminiclostridium cellulolyticum, UniProt B8I0P1)", "sequence (B8I0P1 entry or part of it)": "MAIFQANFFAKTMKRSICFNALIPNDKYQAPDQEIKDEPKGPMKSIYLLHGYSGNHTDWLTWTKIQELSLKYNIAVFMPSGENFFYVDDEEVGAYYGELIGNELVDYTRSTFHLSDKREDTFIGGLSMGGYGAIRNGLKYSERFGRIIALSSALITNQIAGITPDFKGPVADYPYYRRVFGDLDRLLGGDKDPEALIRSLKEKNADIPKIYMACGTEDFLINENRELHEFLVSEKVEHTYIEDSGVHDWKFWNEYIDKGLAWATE", "assay": "Esterase activity of XuaH", "type": "biochemical", "details": "37 °C, 25 mM phosphate buffer pH 7, XuaH 0.1 µM for 1-naphthyl acetate", "method": "(§1) Esterase activity was tested using 1-Naphthyl acetate. Release of 1-Naphthol was monitored at 320 nm during 5 min at 37 °C in 25 mM phosphate buffer pH 7, with substrate final concentration ranging from 110 µM and 5.36 mM, and with XuaH (0.1 µM) or XuaJ (0.01 µM). Concentration of released 1-Naphthol during the first minute of the assay was determined based on 1-Naphthol standard curve."}, "XuaJ": {"molecular_target": "XuaJ (Ruminiclostridium cellulolyticum, UniProt B8I0P3)", "assay": "Esterase activity of XuaJ", "type": "biochemical", "details": "37 °C, 25 mM phosphate buffer pH 7, XuaJ 0.01 µM for 1-naphthyl acetate", "method": "as §1"}, "[1]": {"substrate": "OC[C@@H]1O[C@@H](O[C@H]2[C@H](O[C@@H]3CO[C@@H](O[C@@H]4COC(O)[C@H](O)[C@H]4O)[C@H](O)[C@H]3O)OC[C@@H](O)[C@@H]2O)[C@H](O)[C@H]1O", "assay": "Enzyme activity of XuaD on AXOS (HPAEC-PAD)", "type": "biochemical, Ruminiclostridium cellulolyticum", "details": "other: 37 °C, substrate 0.05 to 8 mM", "method": "(§2) XuaD, E, F, G (0.01 to 1 µM) were tested with different AXOS and/or XOS at 1 mM with incubation times varying from 5 min to 24 h. Enzymes (10 nM) were incubated at 37 °C for 5 min, kinetic parameters of XuaD were determined with both A^2,3XX and A^2XX, with sugar concentration varying from 0.05 to 8 mM, and XuaE with A^2,3XX with sugar concentration varying from 0.05 to 1 mM (at least 9 concentration point). Substrates and released products were quantified by high performance anion exchange chromatography coupled with pulsed amperometric detection on an ICS-3000 using a PA1 column (Thermo Scientific). Sugars were eluted with the buffers 0.1 M NaOH and 0.5 M sodium acetate + 0.1 M NaOH as the eluants A and B, respectively, using the multistep procedure as follows: isochratic separation (5 min, 95% A + 5% B), separation gradient (8 min, 10–37% B), column wash (2 min, 99% B), and subsequent column equilibration (2.5 min, 95% A + 5% B)."}, "[2]": {"substrate": "OC[C@@H]1O[C@@H](O[C@@H]2[C@@H](O[C@@H]3O[C@@H](CO)[C@H](O)[C@H]3O)[C@H](O[C@@H]3CO[C@@H](O[C@@H]4COC(O)[C@H](O)[C@H]4O)[C@H](O)[C@H]3O)OC[C@H]2O)[C@H](O)[C@H]1O", "assay": "Enzyme activity of XuaD on AXOS (HPAEC-PAD)", "type": "biochemical, Ruminiclostridium cellulolyticum", "details": "other: 37 °C, substrate 0.05 to 8 mM", "method": "as §2"}, "[3]": {"substrate": "CC(=O)Oc1cccc2ccccc12", "assay": "Esterase activity of XuaJ", "type": "biochemical, Ruminiclostridium cellulolyticum", "details": "other: 37 °C, pH 7, substrate 110 µM to 5.36 mM", "method": "as §1"}},
  "data": [
    {"molecule": "CC(=O)Oc1cccc2ccccc12", "note": "[1-Naphthyl acetate]", "values": [
      {"measurement": "Specific activity (IU) of XuaH", "setting": "XuaH", "result": "IU: 3504.6 ± 18.9 IU/µmol of enzyme"},
      {"measurement": "Specific activity (IU) of XuaJ", "setting": "XuaJ", "result": "IU: 21130.4 ± 676.4 IU/µmol of enzyme"}
    ]},
    {"molecule": "B1", "values": [
      {"measurement": "Km", "setting": "[1]", "result": "Km 1.4 ± 0.3 mM"},
      {"measurement": "kcat", "setting": "[1]", "result": "kcat 3408.0 ± 356.6 min^−1"},
      {"measurement": "kcat/Km", "setting": "[1]", "result": "kcat/Km 2411.9 ± 303.3 min^−1 mM^−1"},
      {"measurement": "Km", "setting": "[2]", "result": "Km 1.8 ± 0.2 mM"},
      {"measurement": "kcat", "setting": "[2]", "result": "kcat 4191.3 ± 117.3 min^−1"},
      {"measurement": "kcat/Km", "setting": "[2]", "result": "kcat/Km 2388.2 ± 182.9 min^−1 mM^−1"}
    ]},
    {"molecule": "B2", "values": [
      {"measurement": "Km", "setting": "[3]", "result": "Km: 0.2 ± 0.02 mM"},
      {"measurement": "kcat", "setting": "[3]", "result": "kcat: 21380.0 ± 440.0 min^-1"},
      {"measurement": "kcat/Km", "setting": "[3]", "result": "kcat/Km: 88703.9 ± 7849.6 min^-1 mM^-1"}
    ]}
  ]
}
